Assay [1] has as its target CD19 CAR containing FMC63 scFv, on the cell surface (CD19 CAR-T cells, CD19 CAR-293T cells). In words: flow cytometry, CAR positive cells unmixed; AF488-CD19sIg1-4 against SSC-A; data reproduced from De Oliveira SN, et al., J Transl Med, 2013.
For assay [2] the target is unchanged. Briefly: flow cytometry, CAR positive cells diluted 1:8 in negative cells; AF488-CD19sIg1-4 against SSC-A; data reproduced from De Oliveira SN, et al., J Transl Med, 2013. Background: Flow cytometry measures light scatter and fluorescence of single cells or particles in a stream.
Assay [3] has the same target. In words: flow cytometry, CAR positive cells diluted 1:16 in negative cells; AF488-CD19sIg1-4 against SSC-A; data reproduced from De Oliveira SN, et al., J Transl Med, 2013.
Assay [4] shares this target. Briefly: flow cytometry, CAR positive cells diluted 1:32 in negative cells; AF488-CD19sIg1-4 against SSC-A; data reproduced from De Oliveira SN, et al., J Transl Med, 2013.
The target is the same in assay [5]. In words: flow cytometry, CAR positive cells diluted 1:64 in negative cells; AF488-CD19sIg1-4 against SSC-A; data reproduced from De Oliveira SN, et al., J Transl Med, 2013.
Assay [6] has the same target. Briefly: flow cytometry, CAR positive cells diluted 1:128 in negative cells; AF488-CD19sIg1-4 against SSC-A; data reproduced from De Oliveira SN, et al., J Transl Med, 2013.

The results in this text go back to patent US20220074937A1.

Sequence of CD19 CAR containing FMC63 scFv, on the cell surface (CD19 CAR-T cells, CD19 CAR-293T cells) (chain, as listed by the source): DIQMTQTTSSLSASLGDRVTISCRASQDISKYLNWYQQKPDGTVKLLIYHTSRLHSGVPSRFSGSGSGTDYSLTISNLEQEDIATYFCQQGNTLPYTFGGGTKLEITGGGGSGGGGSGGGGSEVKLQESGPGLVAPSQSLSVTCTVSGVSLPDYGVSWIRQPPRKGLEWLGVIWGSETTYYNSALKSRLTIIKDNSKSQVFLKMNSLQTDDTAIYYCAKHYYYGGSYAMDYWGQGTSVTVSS

CD19/Fc (Fc fusion): in assay [1], the % of cells in the AF488-CD19sIg1-4 positive gate, CAR positive cell (unmixed) worked out at 65.9%. The substance further displayed a % of cells in the AF488-CD19sIg1-4 positive gate, 1:8 in assay [2] of 9.24%. The % of cells in the AF488-CD19sIg1-4 positive gate, 1:16 in assay [3] was 4.28%. This substance registered a % of cells in the AF488-CD19sIg1-4 positive gate, 1:32 in assay [4] of 2.96%. Further, in assay [5], the % of cells in the AF488-CD19sIg1-4 positive gate, 1:64 was found to be 1.34%. The substance also registered a % of cells in the AF488-CD19sIg1-4 positive gate, 1:128 in assay [6] of 0.646%.
